Assay results published in paper PMC3439879.
Where two headings read alike, the source gives them in different places.

Key:
[1] = molecular target: Hfq (HfqEc) (Escherichia coli) (UniProt P0A6X3); assay: SHAPE footprinting
[2] = molecular target: Hfq (HfqEc) (Escherichia coli) (UniProt P0A6X3); assay: EMSA
[3] = system: HfqCp (Clostridium perfringens); assay: EMSA; conditions: 50 mM Tris-HCl pH 7.5, 100 mM KCl, 10 mM MgCl2, room temperature; […]

Chain of Hfq (HfqEc) (Escherichia coli) (P0A6X3 whole entry): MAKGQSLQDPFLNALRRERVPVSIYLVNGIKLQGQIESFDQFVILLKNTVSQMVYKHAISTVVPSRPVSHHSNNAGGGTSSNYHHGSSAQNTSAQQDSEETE

Row | Substance | Kd [2] | also measured
1 | GGCCUUCGGGCCAAUUCUGGCCGGCUAACCCGGUCACAUGGGAUGAGGAGAUAACAUAAUCUCCCUCCCACAAGCAGUAACUAUAAAAAUAACCCCACUCUCUACAAGGCUCGGGGCGCCCGAAAAAACGGGCAUACAGGUUGACCGACAACGAUAUAAAUCGGAAUCAAAAACUAUGUGUGGAAUUGUUGGCGCGUCGAUCCGGUUCGCCGGAUCCAAAUCGGGCUUCGGUCCGGUUCAAUAUUGGAUCCGCUCGG [glmS mRNA SHAPE construct] |  | binding [1]: binds
2 | GGUUCUGGCCGGCUAACCCGGUCACAUGGGAUGAGGAGAUAACAUAAUCUCCCUCCCACAAGCAGUAACUAUAAAAAUAACCCCACUCUCUACAAGGCUCGGGGCGCCCGAAAAAACGGGCAUACAGGUUGACCGACAACGAUAUAAAUCGGAAUCAAAAACUAUGUGUGGAAUUGUUGGCGCGAAUAUUAAGCUUGCUCGG [glmS mRNA -161 to +21] | 30 nM | 
3 | GlmY | 4.3 nM | 
4 | GlmZ |  | Kd [3]: 12 nM; Kd ([2]; 50 mM Tris-HCl pH 7.5, 100 mM KCl, 10 mM MgCl2, room temperature, […]): 4.5 nM
5 | glmS mRNA -161 to +21 | 30 nM | 
